Test results taken from US20220389118A1 (Chugai, published 2022).

Legend:
[1] = biological target: T1, human FcγRIIa type R (allotype R131) extracellular domain with C-terminal His tag (human, UniProt P12318 34-217); assay: SPR (Biacore), antibody captured, FcγR analyte
T1 construct: extracellular domain; also called FcγRIIaR; FcγRIIa R type; not shown: His tag at the C terminus
T1 sequence (looked up): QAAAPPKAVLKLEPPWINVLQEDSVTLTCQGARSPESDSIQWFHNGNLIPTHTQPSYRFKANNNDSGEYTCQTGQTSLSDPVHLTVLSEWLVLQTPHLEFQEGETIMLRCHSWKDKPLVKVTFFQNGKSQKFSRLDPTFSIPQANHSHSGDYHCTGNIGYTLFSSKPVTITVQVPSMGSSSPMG

[2] = biological target: T2, human FcγRIIIa type V (allotype V158) extracellular domain with C-terminal His tag (human, UniProt P08637 17-208); assay: SPR (Biacore), antibody captured, FcγR analyte
T2 construct: extracellular domain; also called FcγRIIIaV; FcγRIIIa V type; not shown: His tag at the C terminus

[3] = biological target: T3, human FcγRIa extracellular domain with C-terminal His tag (human, UniProt P12314 16-292); assay: SPR (Biacore)
T3 construct: extracellular domain

[4] = biological target: T4, human FcγRIIa type R extracellular domain with C-terminal His tag (human, UniProt P12318 34-217); assay: SPR (Biacore)
T4 construct: extracellular domain; also called FcγRIIaR; FcγRIIa(R)
T4 sequence (looked up): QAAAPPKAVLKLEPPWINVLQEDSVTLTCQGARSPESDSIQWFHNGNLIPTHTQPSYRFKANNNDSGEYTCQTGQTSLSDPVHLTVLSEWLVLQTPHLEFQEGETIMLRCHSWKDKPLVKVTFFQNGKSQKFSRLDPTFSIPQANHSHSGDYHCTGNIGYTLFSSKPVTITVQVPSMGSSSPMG

[5] = biological target: T5, human FcγRIIa type H extracellular domain with C-terminal His tag (human, UniProt P12318 34-217); assay: SPR (Biacore)
T5 construct: extracellular domain; also called FcγRIIaH; FcγRIIa(H)
T5 sequence (looked up): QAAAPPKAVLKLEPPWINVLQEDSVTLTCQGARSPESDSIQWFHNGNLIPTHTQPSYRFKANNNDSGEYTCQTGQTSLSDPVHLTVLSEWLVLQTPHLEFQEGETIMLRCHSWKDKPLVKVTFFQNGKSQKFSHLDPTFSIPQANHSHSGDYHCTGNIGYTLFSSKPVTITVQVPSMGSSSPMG

[6] = biological target: T6, human FcγRIIb extracellular domain with C-terminal His tag (human, UniProt P31994 43-217); assay: SPR (Biacore)
T6 construct: extracellular domain
T6 sequence (looked up): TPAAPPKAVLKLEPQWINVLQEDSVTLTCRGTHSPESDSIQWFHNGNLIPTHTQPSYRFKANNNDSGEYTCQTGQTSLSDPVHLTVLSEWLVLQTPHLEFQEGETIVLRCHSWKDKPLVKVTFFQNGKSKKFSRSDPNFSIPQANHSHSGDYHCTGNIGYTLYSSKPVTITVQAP

[7] = biological target: T6, human FcγRIIb extracellular domain with …; assay: SPR (Biacore), ratio of KDs
[8] = biological target: T4, human FcγRIIa type R extracellular …; assay: SPR (Biacore), parent IL6R-B3/IL6R-L
[9] = biological target: T6, human FcγRIIb extracellular domain with …; assay: SPR (Biacore), parent IL6R-B3/IL6R-L

T2 sequence (P08637 17-208 F176V): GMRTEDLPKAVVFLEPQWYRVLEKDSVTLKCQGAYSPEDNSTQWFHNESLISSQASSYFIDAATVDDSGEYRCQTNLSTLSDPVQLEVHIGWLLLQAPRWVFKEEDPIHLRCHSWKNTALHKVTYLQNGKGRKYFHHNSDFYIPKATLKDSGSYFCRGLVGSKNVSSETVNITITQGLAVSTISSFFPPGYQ
T3 sequence (P12314 16-292): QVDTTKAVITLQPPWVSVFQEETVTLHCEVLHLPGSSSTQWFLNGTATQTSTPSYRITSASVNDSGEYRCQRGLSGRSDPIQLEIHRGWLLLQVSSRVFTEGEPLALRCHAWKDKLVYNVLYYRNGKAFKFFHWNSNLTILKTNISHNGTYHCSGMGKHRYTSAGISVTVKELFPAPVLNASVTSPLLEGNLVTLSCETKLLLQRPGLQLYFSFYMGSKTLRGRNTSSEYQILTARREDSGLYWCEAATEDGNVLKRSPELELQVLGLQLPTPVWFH

Binder | Kd [2] [nM] | Kd [3] [nM] | Kd [4] [nM] | Kd [5] [nM] | Kd [6] [nM] | KD(IIaH)/KD(IIb) [7] | KD(IIaR)/KD(IIb) [7] | KD(IIaR) parent/KD(IIaR) altered polypeptide [8] | KD(IIb) parent/KD(IIb) altered polypeptide [9] | further results
IL6R-BP186/IL6R-L (antibody, human IgG1, kappa, copies: 2 + 2) heavy: QVQLQESGPGLVKPSETLSLTCAVSGHSISHDHAWSWVRQPPGEGLEWIGFISYSGITNYNPSLQGRVTISRDNSKNTLYLQMNSLRAEDTAVYYCARSLARTTAMDYWGEGTLVTVSSASTKGPSVFPLAPSSKSTSGGTAALGCLVKDYFPEPVTVSWNSGALTSGVHTFPAVLQSSGLYSLSSVVTVPSSSLGTQTYICNVNHKPSNTKVDKKVEPKSCDKTHTCPPCPAPDYLGDDSVFLFPPKPKDTLMISRTPEVTCVVVDVSHEDGEVKFNWYVDGVEVHNAKTKPREEQDNSTYRVVSVLTVLHQDWLNGKEYKCKVSNAALPKPIEKTISKAKGQPREPQVYTLPPSRDELTKNQVSLTCLVKGFYPSDIAVEWESNGQPENNYKTTPPVLDSDGSFFLYSKLTVDKSRWQQGNVFSCSVMHEALHNHYTQESLSLSP light: not shown |  |  |  |  |  |  |  |  |  | Kd [1]: 960 nM
IL6R-BP190/IL6R-L (antibody, human IgG1, kappa, copies: 2 + 2) heavy: QVQLQESGPGLVKPSETLSLTCAVSGHSISHDHAWSWVRQPPGEGLEWIGFISYSGITNYNPSLQGRVTISRDNSKNTLYLQMNSLRAEDTAVYYCARSLARTTAMDYWGEGTLVTVSSASTKGPSVFPLAPSSKSTSGGTAALGCLVKDYFPEPVTVSWNSGALTSGVHTFPAVLQSSGLYSLSSVVTVPSSSLGTQTYICNVNHKPSNTKVDKKVEPKSCDKTHTCPPCPAPELLGDDSVFLFPPKPKDTLMISRTPEVTCVVVDVSDEDGEVKFNWYVDGVEVHNAKTKPREEQYNSTYRVVSVLTVLHQDWLNGKEYKCKVSNKALPKPIEKTISKAKGQPREPQVYTLPPSRDELTKNQVSLTCLVKGFYPSDIAVEWESNGQPENNYKTTPPVLDSDGSFFLYSKLTVDKSRWQQGNVFSCSVMHEALHNHYTQESLSLSP light: not shown | 45000 |  |  |  |  |  |  |  |  | 
IL6R-BP199/IL6R-L (antibody, human IgG1, kappa, copies: 2 + 2) heavy: QVQLQESGPGLVKPSETLSLTCAVSGHSISHDHAWSWVRQPPGEGLEWIGFISYSGITNYNPSLQGRVTISRDNSKNTLYLQMNSLRAEDTAVYYCARSLARTTAMDYWGEGTLVTVSSASTKGPSVFPLAPSSKSTSGGTAALGCLVKDYFPEPVTVSWNSGALTSGVHTFPAVLQSSGLYSLSSVVTVPSSSLGTQTYICNVNHKPSNTKVDKKVEPKSCDKTHTCPPCPAPDLLGGDSVFLFPPKPKDTLMISRTPEVTCVVVDVSHEDPEVKFNWYVDGVEVHNAKTKPREEQYNSTYRVVSVLTVLHQDWLNGKEYKCKVSNDALPRPIEKTISKAKGQPREPQVYTLPPSRDELTKNQVSLTCLVKGFYPSDIAVEWESNGQPENNYKTTPPVLDSDGSFFLYSKLTVDKSRWQQGNVFSCSVMHEALHNHYTQESLSLSP light: not shown | 61000 |  |  |  |  |  |  |  |  | 
IL6R-BP205/IL6R-L (antibody, human IgG1, kappa, copies: 2 + 2) heavy: QVQLQESGPGLVKPSETLSLTCAVSGHSISHDHAWSWVRQPPGEGLEWIGFISYSGITNYNPSLQGRVTISRDNSKNTLYLQMNSLRAEDTAVYYCARSLARTTAMDYWGEGTLVTVSSASTKGPSVFPLAPSSKSTSGGTAALGCLVKDYFPEPVTVSWNSGALTSGVHTFPAVLQSSGLYSLSSVVTVPSSSLGTQTYICNVNHKPSNTKVDKKVEPKSCDKTHTCPPCPAPDLLGGDSVFLFPPKPKDTLMISRTPEVTCVVVDVSHEDGEVKFNWYVDGVEVHNAKTKPREEQDNSTYRVVSVLTVLHQDWLNGKEYKCKVSNKALPRPIEKTISKAKGQPREPQVYTLPPSRDELTKNQVSLTCLVKGFYPSDIAVEWESNGQPENNYKTTPPVLDSDGSFFLYSKLTVDKSRWQQGNVFSCSVMHEALHNHYTQESLSLSP light: not shown | 68000 |  |  |  |  |  |  |  |  | 
IL6R-BP207/IL6R-L (antibody, human IgG1, kappa, copies: 2 + 2) heavy: QVQLQESGPGLVKPSETLSLTCAVSGHSISHDHAWSWVRQPPGEGLEWIGFISYSGITNYNPSLQGRVTISRDNSKNTLYLQMNSLRAEDTAVYYCARSLARTTAMDYWGEGTLVTVSSASTKGPSVFPLAPSSKSTSGGTAALGCLVKDYFPEPVTVSWNSGALTSGVHTFPAVLQSSGLYSLSSVVTVPSSSLGTQTYICNVNHKPSNTKVDKKVEPKSCDKTHTCPPCPAPDLLGGDSVFLFPPKPKDTLMISRTPEVTCVVVDVSHEDPEVKFNWYVDGVEVHNAKTKPREEQYNSTYRVVSVLTVLHQDWLNGKEYKCKVSNKALPRPIEKTISKAKGQPREPQVYTLPPSRDELTKNQVSLTCLVKGFYPSDIAVEWESNGQPENNYKTTPPVLDSDGSFFLYSKLTVDKSRWQQGNVFSCSVMHEALHNHYTQESLSLSP light: not shown | 65000 |  |  |  |  |  |  |  |  | 
IL6R-BP213/IL6R-L (antibody, human IgG1, kappa, copies: 2 + 2) heavy: QVQLQESGPGLVKPSETLSLTCAVSGHSISHDHAWSWVRQPPGEGLEWIGFISYSGITNYNPSLQGRVTISRDNSKNTLYLQMNSLRAEDTAVYYCARSLARTTAMDYWGEGTLVTVSSASTKGPSVFPLAPSSKSTSGGTAALGCLVKDYFPEPVTVSWNSGALTSGVHTFPAVLQSSGLYSLSSVVTVPSSSLGTQTYICNVNHKPSNTKVDKKVEPKSCDKTHTCPPCPAPDLLGGDSVFLFPPKPKDTLMISRTPEVTCVVVDVSDEDGEVKFNWYVDGVEVHNAKTKPREEQYNSTYRVVSVLTVLHQDWLNGKEYKCKVSNKALPRPIEKTISKAKGQPREPQVYTLPPSRDELTKNQVSLTCLVKGFYPSDIAVEWESNGQPENNYKTTPPVLDSDGSFFLYSKLTVDKSRWQQGNVFSCSVMHEALHNHYTQESLSLSP light: not shown | 63000 |  |  |  |  |  |  |  |  | 
IL6R-BP551/IL6R-L (antibody, human IgG1, kappa, copies: 2 + 2) heavy: QVQLQESGPGLVKPSETLSLTCAVSGHSISHDHAWSWVRQPPGEGLEWIGFISYSGITNYNPSLQGRVTISRDNSKNTLYLQMNSLRAEDTAVYYCARSLARTTAMDYWGEGTLVTVSSASTKGPSVFPLAPSSKSTSGGTAALGCLVKDYFPEPVTVSWNSGALTSGVHTFPAVLQSSGLYSLSSVVTVPSSSLGTQTYICNVNHKPSNTKVDKKVEPKSCDKTHTCPPCPAPELLGDDSVFLFPPKPKDTLMISRTPEVTCVVIDVSEEDGDVKFNWYVDGVEVHNAKTKPREEQDNSTYRVVSVLTVLHQDWLNGKEYKCKVSNKALPRPIEKTISKAKGQPREPQVYTLPPSRDELTKNQVSLTCLVKGFYPSDIAVEWESNGQPENNYKTTPPVLDSDGSFFLYSKLTVDKSRWQQGNVFSCSVMHEALHNHYTQESLSLSP light: not shown |  | 32 | 250 | 2800 | 6.4 | 436 | 38.1 | 4.5 | 482 | 
IL6R-BP556/IL6R-L (antibody, human IgG1, kappa, copies: 2 + 2) heavy: QVQLQESGPGLVKPSETLSLTCAVSGHSISHDHAWSWVRQPPGEGLEWIGFISYSGITNYNPSLQGRVTISRDNSKNTLYLQMNSLRAEDTAVYYCARSLARTTAMDYWGEGTLVTVSSASTKGPSVFPLAPSSKSTSGGTAALGCLVKDYFPEPVTVSWNSGALTSGVHTFPAVLQSSGLYSLSSVVTVPSSSLGTQTYICNVNHKPSNTKVDKKVEPKSCDKTHTCPPCPAPELLGDDSVFLFPPKPKDTLMISRTPEVTCVVIDVGEEDGEVKFNWYVDGVEVHNAKTKPREEQDNSTYRVVSVLTVLHQDWLNGKEYKCKVSNKALPRPIEKTISKAKGQPREPQVYTLPPSRDELTKNQVSLTCLVKGFYPSDIAVEWESNGQPENNYKTTPPVLDSDGSFFLYSKLTVDKSRWQQGNVFSCSVMHEALHNHYTQESLSLSP light: not shown |  | 43 | 300 | 5800 | 8.4 | 692 | 35.4 | 3.7 | 370 | 
IL6R-BP488/IL6R-L (antibody, human IgG1, kappa, copies: 2 + 2) heavy: QVQLQESGPGLVKPSETLSLTCAVSGHSISHDHAWSWVRQPPGEGLEWIGFISYSGITNYNPSLQGRVTISRDNSKNTLYLQMNSLRAEDTAVYYCARSLARTTAMDYWGEGTLVTVSSASTKGPSVFPLAPSSKSTSGGTAALGCLVKDYFPEPVTVSWNSGALTSGVHTFPAVLQSSGLYSLSSVVTVPSSSLGTQTYICNVNHKPSNTKVDKKVEPKSCDKTHTCPPCPAPDLLGDDSVFLFPPKPKDTLMISRTPEVTCVVIDVAEEDGEVKFNWYVDGVEVHNAKTKPREEQDNSTYRVVSVLTVLHQDWLNGKEYKCKVSNKALPRPIEKTISKAKGQPREPQVYTLPPSRDELTKNQVSLTCLVKGFYPSDIAVEWESNGQPENNYKTTPPVLDSDGSFFLYSKLTVDKSRWQQGNVFSCSVMHEALHNHYTQESLSLSP light: not shown |  | 2.2 | 74 | 1600 | 1.9 | 865 | 40.1 | 14.8 | 1680 | 
